From the supplement of paper PMC10567573 come the findings set out here.

± gives the standard deviation.

The data set is described as follows: protein stability index of a GFP-peptide fusion (GPS, HEK-293T) (PSI 1-6); higher = more stable. The following applies: c terminus: a fixed tail appended.
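Further: 24-mer peptide tiles fused after GFP, lentivirally expressed, FACS-sorted into six equal bins by GFP/DsRed ratio, decoded by Illumina sequencing, PSI is the read-weighted mean bin number.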

Take TLAVTCQLPIDRGGGEGKAMYIDT [RAD51]: the protein stability index was determined as 3.14 ± 0.25 (treatment: DMSO) and 3.33 ± 0.32 (treatment: MLN4924 1 uM, 8 h).
Consider TLLAVGCNDGRIVIWDFLTRGIAK [RBBP5], for which the protein stability index runs as follows: (treatment: DMSO) 2.65 ± 0.51; (treatment: MLN4924 1 uM, 8 h) 2.55 ± 0.84.
On the same counts, the results for TLSRPPPAQVPREVLKVQTHLENP [TFE3] are 4.3 ± 0.11 and 4.41 ± 0.19.
Taken in the same sequence, the figures for TMELRNYFSLYCLHQETQLIHVYL [SNX8] were 3.41 ± 0.67 and 2.94 ± 0.72.
Sequence TMKESLTTREIRRQEAIYEMSRGE [NET1] registered a protein stability index (treatment: DMSO) of 4.46 ± 0.26 and a protein stability index (treatment: MLN4924 1 uM, 8 h) of 4.68 ± 0.33.
Taken in the same sequence, the figures for TNPDLIIVCAQSSQSLWNRLSVLL [SMG5] were 2.59 ± 0.54 and 2.49 ± 0.64.
TPAPPLWIGLFLVATGSQQSLAQP showed a protein stability index (treatment: DMSO) of 2.57 ± 0.23 and a protein stability index (treatment: MLN4924 1 uM, 8 h) of 2.94 ± 0.74.
Regarding TPPTPAPTSGIVGALMEVMQKRSK [WASL], the protein stability index stood at 4.55 ± 0.12 (treatment: DMSO) and 4.65 ± 0.25 (treatment: MLN4924 1 uM, 8 h).
On the same counts, the results for TPSNFQHIGHVGWDPNTGFDLNNL [WASL] are 3.24 ± 0.3 and 3.47 ± 0.4.
As to TPTLKVFMHENLYFTNRKVNSVCW [DCAF4], the protein stability index amounted to 2.26 ± 0.4 (treatment: DMSO) and 1.95 ± 0.22 (treatment: MLN4924 1 uM, 8 h).
Turning to TPVPTITANVTSVPVPPAAAPPPP [BRD3], the protein stability index stood at 4.92 ± 0.17 (treatment: DMSO) and 5.04 ± 0.17 (treatment: MLN4924 1 uM, 8 h).
For the sequence TQHKFICEQCGKCKCGECTAPRTL [SPRY1], the protein stability index (treatment: DMSO) worked out at 4 ± 0.22 and the protein stability index (treatment: MLN4924 1 uM, 8 h) turned out to be 3.87 ± 0.18.
Taken in the same sequence, the figures for TRGDADMYDLPKKEDALLYQSKGY [EMD] were 4.19 ± 0.14 and 4.38 ± 0.15.
Taken in the same sequence, the figures for TRKQAAKKVAPLMAKAIRDYKGRF [ELOA2] were 3.25 ± 0.37 and 3.39 ± 0.36.
On the same counts, the results for TRRTLKGHGNKVLCMDWCKDKRRI [GNB5] are 3.02 ± 0.37 and 3.25 ± 0.23.
With TRTTSFKGTSPSSKYVKLNVGGAL [KCTD10], the protein stability index reads like this: (treatment: DMSO) 3.01 ± 0.41; (treatment: MLN4924 1 uM, 8 h) 2.87 ± 0.28.
On the same counts, the results for TRYSVAGLSPYSDYEFRVVAVNNI [PTPRD] are 2.51 ± 0.35 and 2.61 ± 0.37.
Consider TSASLLNAGLSHTEYQIVTDPGDV [SLC2A12], for which the protein stability index reads like this: (treatment: DMSO) 4.42 ± 0.16; (treatment: MLN4924 1 uM, 8 h) 4.76 ± 0.15.
On the same counts, the results for TSCLKKREEMKLKECVSILPRKES [TNFSF13B] are 4.42 ± 0.15 and 4.5 ± 0.15.
On the same counts, the results for TSHRRVTDVRGLEEFLSAMQSARG [PLEKHN1] are 3.33 ± 0.31 and 3.42 ± 0.26.
In the case of TSPALLQGTAEEDHVDLSLSCTLV [CDKN1A], the protein stability index turned out to be 3.85 ± 0.13 (treatment: DMSO) and 3.85 ± 0.18 (treatment: MLN4924 1 uM, 8 h).
The sequence TSYKPYLNRDEEIIKQLQKGVQQK [DENND6A] had a protein stability index (treatment: DMSO) of 3.34 ± 0.25 and a protein stability index (treatment: MLN4924 1 uM, 8 h) of 3.27 ± 0.34.
Taken in the same sequence, the figures for TTQSAEVGAAETTLTELRRTVQSL [KRT18] were 4.63 ± 0.22 and 4.55 ± 0.4.
Consider TVKMLRTQRPAMVQTEDQYQFSYR [PTPRD], for which the protein stability index runs as follows: (treatment: DMSO) 2.84 ± 0.37; (treatment: MLN4924 1 uM, 8 h) 2.97 ± 0.33.
On the same counts, the results for TVLKQIAPEYFEKNEPYLEAACND [DENND6A] are 3.09 ± 0.05 and 3.26 ± 0.43.
On the same counts, the results for TVNIHRLHVKRSMGWKKACDELEL [ZMYND11] are 2.61 ± 0.32 and 2.77 ± 0.36.
Taken in the same sequence, the figures for TVTSLKTKVGGTNPNGGSFEEVLS [TPD52L1] were 3.811 ± 0.036 and 3.82 ± 0.18.
As to VALGHAYHPEEFVCSQCGKVLEEG [PDLIM7], the protein stability index stood at 3.93 ± 0.34 (treatment: DMSO) and 4.03 ± 0.11 (treatment: MLN4924 1 uM, 8 h).
Taken in the same sequence, the figures for VAVLEQEIKDKDQLVLRTKEAFDT [SASS6] were 4.57 ± 0.21 and 4.67 ± 0.41.
Turning to VCNKKFKMKHHLTEHMKTHTGLKP [ZBTB22], the protein stability index runs as follows: (treatment: DMSO) 3.18 ± 0.14; (treatment: MLN4924 1 uM, 8 h) 3.21 ± 0.23.
Taken in the same sequence, the figures for VCQKLLLDAMNYHLMPFRQHCRQS [KLHL14] were 3 ± 0.47 and 2.99 ± 0.62.
Taken in the same sequence, the figures for VCSVRGGEGRSRGSANDYKDTLGK [KRT71] were 4.68 ± 0.32 and 4.79 ± 0.18.
Taken in the same sequence, the figures for VDNHFNLLTTSPVFPHYIEKPLGR [TRIM43] were 3.05 ± 0.4 and 2.96 ± 0.7.
VDNSCDWALGVCNNSWIRKNSTMV [TRIM43]: the protein stability index reads like this: (treatment: DMSO) 2.49 ± 0.34; (treatment: MLN4924 1 uM, 8 h) 2.5 ± 0.44.
Taken in the same sequence, the figures for VDSKPELQRVLEHRRRNQLIKKKK [FAM107A] were 4.54 ± 0.2 and 4.61 ± 0.39.
On the same counts, the results for VEECQAALQNKDTYEPFCKVPVIT [KCTD10] are 4.06 ± 0.15 and 4.12 ± 0.3.
